Measurements: article PMC5628019

Biological target: MTTR (recombinant monomeric version of TTR), as non-native oligomers (human) (UniProt P02766)

For “VAVHVF (truncated probe B-1, minimal binding competent sequence) (peptide)”, the incorporation compared to probe B-1 was 90 % less.
